Measurements from PMC3089606, “The E. coli Anti-Sigma Factor Rsd: Studies on the Specificity and Regulation of Its Expression” (PLoS ONE, 2011).

Legend:
[1] = tested on: RNA polymerase holoenzyme Esigma38 (Escherichia coli); assay: EMSA; conditions: 1 uM Rsd; binding buffer, salt, pH and temperature not given in the material; heparin competitor in NAP footprints
[2] = molecular target: T1, RNA polymerase sigma factor σ^70 (E. coli, UniProt P00579 1-613); assay: cross-linking; 3 µg Rsd with 3 µg σ^70, σ^38 or Rsd (or each protein alone), 30 minutes in 15 µl 50 mM HEPES pH 7.4, 5% glycerol, 0.1 mM EDTA, 0.1 mM DTT; 0.02% glutaraldehyde, room temperature 30 minutes; SDS gel, Coomassie staining; conditions: both partners purified
T1 construct: RNA polymerase sigma factor σ^70 (RpoD), E. coli; also called free σ^70; sigma D
T1 sequence (P00579 whole entry): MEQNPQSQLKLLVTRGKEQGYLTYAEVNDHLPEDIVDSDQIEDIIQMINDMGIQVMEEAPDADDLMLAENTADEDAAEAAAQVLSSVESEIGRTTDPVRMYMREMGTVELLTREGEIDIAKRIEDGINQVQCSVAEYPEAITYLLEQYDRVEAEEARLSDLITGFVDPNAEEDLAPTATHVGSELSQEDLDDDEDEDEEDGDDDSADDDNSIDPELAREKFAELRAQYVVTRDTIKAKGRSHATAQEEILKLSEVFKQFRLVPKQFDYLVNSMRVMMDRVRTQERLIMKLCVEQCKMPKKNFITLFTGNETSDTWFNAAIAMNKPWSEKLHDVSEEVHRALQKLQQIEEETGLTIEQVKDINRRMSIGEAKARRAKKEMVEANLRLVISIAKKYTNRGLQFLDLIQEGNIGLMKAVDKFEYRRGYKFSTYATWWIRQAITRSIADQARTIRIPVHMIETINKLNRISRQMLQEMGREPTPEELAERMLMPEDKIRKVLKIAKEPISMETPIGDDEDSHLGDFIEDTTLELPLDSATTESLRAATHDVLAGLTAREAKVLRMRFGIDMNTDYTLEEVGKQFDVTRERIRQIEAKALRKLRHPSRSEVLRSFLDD

[3] = molecular target: the molecule itself; assay: as above
[4] = molecular target: T1, RNA polymerase sigma factor σ^70; assay: pull-down; biotinylated Rsd incubated with the protein of interest (molar ratios 1:1 or 1:3) for 1 hour in TGED buffer on ice, held on Streptavidine MicroBeads column, four washes, elution with SDS buffer; SDS gel, Coomassie and silver staining; conditions: both partners purified
[5] = molecular target: T2, RNA polymerase sigma factor σ^38 (E. coli, UniProt P13445 1-330); assay: as above; conditions: both partners purified
T2 construct: stationary phase-specific sigma factor σ^38 (RpoS), E. coli; also called σ^s; RpoS
T2 sequence (P13445 whole entry): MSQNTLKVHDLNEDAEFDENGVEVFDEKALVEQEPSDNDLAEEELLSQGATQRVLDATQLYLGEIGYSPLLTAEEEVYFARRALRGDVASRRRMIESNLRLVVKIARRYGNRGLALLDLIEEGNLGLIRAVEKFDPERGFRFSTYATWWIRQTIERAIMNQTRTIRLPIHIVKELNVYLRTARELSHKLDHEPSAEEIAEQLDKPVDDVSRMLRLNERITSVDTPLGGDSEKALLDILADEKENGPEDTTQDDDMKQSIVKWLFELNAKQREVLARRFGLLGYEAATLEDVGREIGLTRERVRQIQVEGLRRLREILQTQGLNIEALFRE

Molecule: fic promoter fragment
- binding signal (% of complex remaining) [1]: 50

B1: Rsd (regulator of sigma D), native protein (natural protein, E. coli, UniProt P0AFX4 1-158, looked up)
chain: MLNQLDNLTERVRGSNKLVDRWLHVRKHLLVAYYNLVGIKPGKESYMRLNEKALDDFCQSLVDYLSAGHFSIYERILHKLEGNGQLARAAKIWPQLEANTQQIMDYYDSSLETAIDHDNYLEFQQVLSDIGEALEARFVLEDKLILLVLDAARVKHPA
notes: Rsd (regulator of sigma D), E. coli; No tag is mentioned; also called native Rsd; anti-sigma factor Rsd; source: E. coli BL21DE3pLysS/pUC18-Rsd, purified (DEAE-Sephadex A25, P11-phosphocellulose, NH4SO4 precipitation)
- binding result [2]: binds
- stoichiometry N [3]: 2

B2: Biotinylated Rsd (natural protein, E. coli, UniProt P0AFX4 1-158, looked up)
chain: MLNQLDNLTERVRGSNKLVDRWLHVRKHLLVAYYNLVGIKPGKESYMRLNEKALDDFCQSLVDYLSAGHFSIYERILHKLEGNGQLARAAKIWPQLEANTQQIMDYYDSSLETAIDHDNYLEFQQVLSDIGEALEARFVLEDKLILLVLDAARVKHPA
modifications: biotin (9 fold excess of Biotinyl-N-hydroxy-succinimide; modified residues not stated)
notes: Rsd (regulator of sigma D), E. coli; Held on Streptavidine MicroBeads through the biotin; also called Biotinylated-Rsd protein; immobilized Rsd; source: E. coli BL21DE3pLysS/pUC18-Rsd, purified, then biotinylated with Biotinyl-N-hydroxy-succinimide
- binding result [4]: binds
- binding result [5]: binds
